{
  "source": "paper PMC8630191",
  "about": "“Regulation of PP2A, PP4, and PP6 holoenzyme assembly by carboxyl-terminal methylation” (Scientific Reports, 2021)",
  "binders": {"B1": {"name": "B56α, PP2A regulatory subunit (natural protein)", "chain": "not shown", "notes": "PP2A regulatory subunit B56, alpha isoform"}, "B2": {"name": "STRN3 (striatin-3) (natural protein, human (endogenous in Rpe1), UniProt Q13033 1-797, looked up)", "chain": "MDELAGGGGGGPGMAAPPRQQQGPGGNLGLSPGGNGAAGGGGPPASEGAGPAAGPELSRPQQYTIPGILHYIQHEWARFEMERAHWEVERAELQARIAFLQGERKGQENLKKDLVRRIKMLEYALKQERAKYHKLKYGTELNQGDLKMPTFESEETKDTEAPTAPQNSQLTWKQGRQLLRQYLQEVGYTDTILDVRSQRVRSLLGLSNSEPNGSVETKNLEQILNGGESPKQKGQEIKRSSGDVLETFNFLENADDSDEDEENDMIEGIPEGKDKHRMNKHKIGNEGLAADLTDDPDTEEALKEFDFLVTAEDGEGAGEARSSGDGTEWDKDDLSPTAEVWDVDQGLISKLKEQYKKERKGKKGVKRANRTKLYDMIADLGDDELPHIPSGIINQSRSASTRMTDHEGARAEEAEPITFPSGGGKSFIMGSDDVLLSVLGLGDLADLTVTNDADYSYDLPANKDAFRKTWNPKYTLRSHFDGVRALAFHPVEPVLVTASEDHTLKLWNLQKTVPAKKSASLDVEPIYTFRAHIGPVLSLAISSNGEQCFSGGIDATIQWWNMPSPSVDPYDTYEPNVLAGTLVGHTDAVWGLAYSGIKNQLLSCSADGTVRLWNPQEKLPCICTYNGDKKHGIPTSVDFIGCDPAHMVTSFNTGSAVIYDLETSQSLVILSSQVDSGLQSNNHINRVVSHPTLPVTITAHEDRHIKFFDNKTGKMIHSMVAHLDAVTSLAVDPNGIYLMSGSHDCSIRLWNLDSKTCVQEITAHRKKLDESIYDVAFHSSKAYIASAGADALAKVFV", "notes": "Striatin-3, PP2A regulatory subunit of the striatin family (B'''); source: endogenous, Rpe1 lysate"}, "B3": {"name": "PR65β, PP2A scaffolding (A) subunit (natural protein, UniProt P30154 1-601, looked up)", "chain": "MAGASELGTGPGAAGGDGDDSLYPIAVLIDELRNEDVQLRLNSIKKLSTIALALGVERTRSELLPFLTDTIYDEDEVLLALAEQLGNFTGLVGGPDFAHCLLPPLENLATVEETVVRDKAVESLRQISQEHTPVALEAYFVPLVKRLASGDWFTSRTSACGLFSVCYPRASNAVKAEIRQQFRSLCSDDTPMVRRAAASKLGEFAKVLELDSVKSEIVPLFTSLASDEQDSVRLLAVEACVSIAQLLSQDDLETLVMPTLRQAAEDKSWRVRYMVADRFSELQKAMGPKITLNDLIPAFQNLLKDCEAEVRAAAAHKVKELGENLPIEDRETIIMNQILPYIKELVSDTNQHVKSALASVIMGLSTILGKENTIEHLLPLFLAQLKDECPDVRLNIISNLDCVNEVIGIRQLSQSLLPAIVELAEDAKWRVRLAIIEYMPLLAGQLGVEFFDEKLNSLCMAWLVDHVYAIREAATNNLMKLVQKFGTEWAQNTIVPKVLVMANDPNYLHRMTTLFCINALSEACGQEITTKQMLPIVLKMAGDQVANVRFNVAKSLQKIGPILDTNALQGEVKPVLQKLGQDEDMDVKYFAQEAISVLALA", "notes": "PP2A scaffolding subunit A, beta isoform (PR65β)"}, "B4": {"name": "B56ε, PP2A regulatory subunit (natural protein)", "chain": "not shown", "notes": "PP2A regulatory subunit B56, epsilon isoform"}, "B5": {"name": "B56δ, PP2A regulatory subunit (natural protein)", "chain": "not shown", "notes": "PP2A regulatory subunit B56, delta isoform"}, "B6": {"name": "B55β, PP2A regulatory subunit (natural protein, human (endogenous in HeLa), UniProt Q00005 1-443, looked up)", "chain": "MEEDIDTRKINNSFLRDHSYATEADIISTVEFNHTGELLATGDKGGRVVIFQREQESKNQVHRRGEYNVYSTFQSHEPEFDYLKSLEIEEKINKIRWLPQQNAAYFLLSTNDKTVKLWKVSERDKRPEGYNLKDEEGRLRDPATITTLRVPVLRPMDLMVEATPRRVFANAHTYHINSISVNSDYETYMSADDLRINLWNFEITNQSFNIVDIKPANMEELTEVITAAEFHPHHCNTFVYSSSKGTIRLCDMRASALCDRHTKFFEEPEDPSNRSFFSEIISSISDVKFSHSGRYIMTRDYLTVKVWDLNMENRPIETYQVHDYLRSKLCSLYENDCIFDKFECVWNGSDSVIMTGSYNNFFRMFDRNTKRDVTLEASRENSKPRAILKPRKVCVGGKRRKDEISVDSLDFSKKILHTAWHPSENIIAVAATNNLYIFQDKVN", "notes": "PP2A regulatory subunit B55, beta isoform; source: endogenous, HeLa lysate"}, "B7": {"name": "STRN (striatin) (natural protein, human (endogenous in Rpe1), UniProt O43815 1-780, looked up)", "chain": "MDEQAGPGVFFSNNHPGAGGAKGLGPLAEAAAAGDGAAAAGAARAQYSLPGILHFLQHEWARFEVERAQWEVERAELQAQIAFLQGERKGQENLKKDLVRRIKMLEYALKQERAKYHKLKYGTELNQGDMKPPSYDSDEGNETEVQPQQNSQLMWKQGRQLLRQYLQEVGYTDTILDVKSKRVRALLGFSSDVTDREDDKNQDSVVNGTEAEVKETAMIAKSELTDSASVLDNFKFLESAAADFSDEDEDDDVDGREKSVIDTSTIVRKKALPDSGEDRDTKEALKEFDFLVTSEEGDNESRSAGDGTDWEKEDQCLMPEAWNVDQGVITKLKEQYKKERKGKKGVKRPNRSKLQDMLANLRDVDELPSLQPSVGSPSRPSSSRLPEHEINRADEVEALTFPPSSGKSFIMGADEALESELGLGELAGLTVANEADSLTYDIANNKDALRKTWNPKFTLRSHFDGIRALAFHPIEPVLITASEDHTLKMWNLQKTAPAKKSTSLDVEPIYTFRAHKGPVLCVVMSSNGEQCYSGGTDGLIQGWNTTNPNIDPYDSYDPSVLRGPLLGHTDAVWGLAYSAAHQRLLSCSADGTLRLWNTTEVAPALSVFNDTKELGIPASVDLVSSDPSHMVASFSKGYTSIFNMETQQRILTLESNVDTTANSSCQINRVISHPTLPISITAHEDRHIKFYDNNTGKLIHSMVAHLEAVTSLAVDPNGLYLMSGSHDCSIRLWNLESKTCIQEFTAHRKKFEESIHDVAFHPSKCYIASAGADALAKVFV", "notes": "Striatin, PP2A regulatory subunit of the striatin family (B'''); source: endogenous, Rpe1 lysate"}, "B8": {"name": "B55α, PP2A regulatory subunit (natural protein, human (endogenous in HeLa), UniProt P63151 1-447, looked up)", "chain": "MAGAGGGNDIQWCFSQVKGAVDDDVAEADIISTVEFNHSGELLATGDKGGRVVIFQQEQENKIQSHSRGEYNVYSTFQSHEPEFDYLKSLEIEEKINKIRWLPQKNAAQFLLSTNDKTIKLWKISERDKRPEGYNLKEEDGRYRDPTTVTTLRVPVFRPMDLMVEASPRRIFANAHTYHINSISINSDYETYLSADDLRINLWHLEITDRSFNIVDIKPANMEELTEVITAAEFHPNSCNTFVYSSSKGTIRLCDMRASALCDRHSKLFEEPEDPSNRSFFSEIISSISDVKFSHSGRYMMTRDYLSVKIWDLNMENRPVETYQVHEYLRSKLCSLYENDCIFDKFECCWNGSDSVVMTGSYNNFFRMFDRNTKRDITLEASRENNKPRTVLKPRKVCASGKRKKDEISVDSLDFNKKILHTAWHPKENIIAVATTNNLYIFQDKVN", "notes": "PP2A regulatory subunit B55, alpha isoform; source: endogenous, HeLa lysate"}},
  "details_in_all_cases": "partners not purified",
  "key": {"[1]": {"molecular_target": "T1, 3xFLAG-tagged PP2Acβ ΔL mutant (Leu 309 deleted) (human, UniProt P62714 1-309, ΔL309)", "T1 construct": "PP2A catalytic subunit, beta isoform (PP2Acβ, PPP2CB), human, in p3XFLAG-CMV10; C-terminal Leu 309 deleted by inserting a stop codon; also called ΔL309", "T1 sequence (P62714 1-308, stated change not applied)": "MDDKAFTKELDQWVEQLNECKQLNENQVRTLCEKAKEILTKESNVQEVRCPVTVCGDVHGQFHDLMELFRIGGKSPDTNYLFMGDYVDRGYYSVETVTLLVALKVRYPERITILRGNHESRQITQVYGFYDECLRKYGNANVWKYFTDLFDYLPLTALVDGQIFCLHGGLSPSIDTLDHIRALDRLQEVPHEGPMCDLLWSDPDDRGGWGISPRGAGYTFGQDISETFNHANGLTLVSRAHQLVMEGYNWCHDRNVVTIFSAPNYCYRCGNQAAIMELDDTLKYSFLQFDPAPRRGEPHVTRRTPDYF", "test": "affinity purification with mass spectrometry; 3xFLAG-tagged catalytic subunit (WT or ΔL) transfected in FreeStyle 293F cells; FLAG M2 affinity gel, 3 h at 4 °C; lysis and wash buffer 50 mM Tris pH 7.5, 500 mM NaCl, 0.5% Triton X-100; eluted with 3XFLAG peptide; label-free quantitative LC-MS/MS on unique peptides, three replicates"}, "[2]": {"molecular_target": "T2, PP2A catalytic subunit PP2Acα/β, endogenous (human (endogenous in HEK293T, HeLa, …, UniProt P67775 1-309, carboxyl methyl ester on the C-terminal leucine in wild-type cells; strongly reduced in LCMT1 hypomorph cells)", "T2 construct": "PP2A catalytic subunit, alpha (PPP2CA) or beta (PPP2CB) isoform; One molecule for wild-type and LCMT1 hypomorph cells; also called PP2Acβ; PPP2CA/B", "T2 sequence (P67775 whole entry, canonical isoform)": "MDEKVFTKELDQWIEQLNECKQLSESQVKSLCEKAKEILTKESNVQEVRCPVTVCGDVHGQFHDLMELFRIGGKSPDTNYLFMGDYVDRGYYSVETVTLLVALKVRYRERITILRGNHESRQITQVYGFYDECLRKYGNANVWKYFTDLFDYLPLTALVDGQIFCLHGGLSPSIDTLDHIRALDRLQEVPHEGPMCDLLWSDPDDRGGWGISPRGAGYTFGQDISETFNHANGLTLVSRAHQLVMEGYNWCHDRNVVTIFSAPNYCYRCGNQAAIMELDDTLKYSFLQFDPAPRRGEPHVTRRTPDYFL", "test": "affinity purification with mass spectrometry; PIB-MS: phosphatase inhibitor beads (microcystin-LR on sepharose) on Rpe1 lysates, wild type and pooled LCMT1 hypomorph cells; label-free LC-MS/MS; subunits normalised to the respective catalytic subunit"}, "[3]": {"molecular_target": "T2, PP2A catalytic subunit PP2Acα/β, …", "test": "affinity purification with mass spectrometry; PIB-MS: phosphatase inhibitor beads (microcystin-LR on sepharose) on HeLa lysates, wild type and LCMT1 hypomorph clone; label-free LC-MS/MS; subunits normalised to the respective catalytic subunit"}},
  "data": [
    {"binder": "B1", "values": [
      {"measurement": "fold reduction of binding, ΔL against WT", "setting": "[1]", "value": 32, "unit": "fold"}
    ]},
    {"binder": "B2", "values": [
      {"measurement": "fold reduction of binding, LCMT1 HM against WT cells", "setting": "[2]", "value": 4, "unit": "fold"}
    ]},
    {"binder": "B3", "values": [
      {"measurement": "fold reduction of binding, ΔL against WT", "setting": "[1]", "value": "~2", "unit": "fold"}
    ]},
    {"binder": "B4", "values": [
      {"measurement": "fold reduction of binding, ΔL against WT", "setting": "[1]", "value": 11, "unit": "fold"},
      {"measurement": "fold more reduced in binding (LCMT1 HM against WT cells) than B56γ and B56δ", "setting": "[3]", "value": 8, "unit": "fold"}
    ]},
    {"binder": "B5", "values": [
      {"measurement": "fold reduction of binding, ΔL against WT", "setting": "[1]", "value": 2, "unit": "fold"}
    ]},
    {"binder": "B6", "values": [
      {"measurement": "fold reduction of binding, LCMT1 HM against WT cells", "setting": "[3]", "value": "~4", "unit": "fold"}
    ]},
    {"binder": "B7", "values": [
      {"measurement": "fold reduction of binding, LCMT1 HM against WT cells", "setting": "[2]", "value": 4, "unit": "fold"}
    ]},
    {"binder": "B8", "values": [
      {"measurement": "fold reduction of binding, LCMT1 HM against WT cells", "setting": "[3]", "value": "~11", "unit": "fold"}
    ]}
  ]
}
